The results in this text go back to PMC8308607, “Antistaphylococcal Activity of the FtsZ Inhibitor C109” (Pathogens, 2021).

This data set deals with the molecule itself. The data set can be described thus: co-sedimentation; polymerization (sedimentation) assay: 12 μM SaFtsZ, 2 mM GTP, 50 mM MES pH 6.5, 5 mM Mg(CH3COO)2, 100 mM CH3CO2K, 10 min at 30 °C, ultracentrifuged at 350,000 x g for 10 min at 25 °C, pellet and supernatant on SDS-PAGE; with or without 50 μM C109.

B1: wild-type FtsZ of S. aureus (natural protein, Staphylococcus aureus ATCC 25923, UniProt P0A031 1-390, looked up)
chain: MLEFEQGFNHLATLKVIGVGGGGNNAVNRMIDHGMNNVEFIAINTDGQALNLSKAESKIQIGEKLTRGLGAGANPEIGKKAAEESREQIEDAIQGADMVFVTSGMGGGTGTGAAPVVAKIAKEMGALTVGVVTRPFSFEGRKRQTQAAAGVEAMKAAVDTLIVIPNDRLLDIVDKSTPMMEAFKEADNVLRQGVQGISDLIAVSGEVNLDFADVKTIMSNQGSALMGIGVSSGENRAVEAAKKAISSPLLETSIVGAQGVLMNITGGESLSLFEAQEAADIVQDAADEDVNMIFGTVINPELQDEIVVTVIATGFDDKPTSHGRKSGSTGFGTSVNTSSNATSKDESFTSNSSNAQATDSVSERTHTTKEDDIPSFIRNREERRSRRTRR
notes: FtsZ, cell division protein, Staphylococcus aureus ATCC 25923; full-length ftsZ gene (1173 bp) amplified from genomic DNA; Cloned into pETSUMO by In-Fusion; also called SaFtsZ; full-length S. aureus FtsZ; source: E. coli BL21(DE3), purified (HisTrap HP nickel column, SUMO protease, Superdex-75 SEC)
Consider B1, for which the binding result is on record as “binds”.
